Laboratory results: US20060024698, “Method to protect DNA ends” (published 2006)

T1: DdrA (DR0423) (Deinococcus radiodurans R1, UniProt Q9RX92 SEQ:1-208)
T1 sequence: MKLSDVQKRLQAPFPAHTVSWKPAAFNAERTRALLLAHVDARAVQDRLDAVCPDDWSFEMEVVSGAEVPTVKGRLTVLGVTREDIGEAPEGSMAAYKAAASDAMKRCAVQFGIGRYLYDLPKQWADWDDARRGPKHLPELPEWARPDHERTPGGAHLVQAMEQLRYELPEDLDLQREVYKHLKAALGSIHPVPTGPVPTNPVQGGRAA


Tests used:
[1] = biological target: T1, DdrA (DR0423); test: FP; KD,app; 1.0 nM DNA, 30 C, 30 min; conditions: tags: untagged, expressed in E. coli from pEAW298; chain copies: 8-10 subunit oligomer in solution by gel filtration (stated); label: 3' fluorescent tag
Experimental: FIG. 9 is a graph of fluorescence anisotropy data for DdrA binding to single-stranded DNA. Increasing concentrations of DdrA protein were incubated with 3′-fluorescently tagged DNA (1.0 nM) at 30° C. for 30 minutes. Samples were analyzed using the Beacons 2000 Fluorescence Polarization System and a curve was generated suing CURVE EXPERT 1.3 software. The K_{D,app} for each substrate is the concentration of DdrA when 50% of the DNA is bound as determined by the generated curve fit.

[2] = biological target: T1, DdrA (DR0423); test: EMSA; 4 uM DdrA; not disrupted by 1000-2000 fold excess of 5'-extension oligo; conditions: tags: untagged, expressed in E. coli from pEAW298; chain copies: 8-10 subunit oligomer in solution by gel filtration (stated); label: 3'-32P ddATP; 18 bp hairpin with 16 nt 3' single-strand extension
Experimental: Four sets of EMSA assays are presented, with the gels and electrophoresis conditions carefully matched. DNA substrate concentrations are 0.7 nM in each case, reported as total molecules. In each set, the first three lanes have show the effects of the indicated concentration of DdrA protein. […] In set D, the sixth and seventh lanes are identical to the third lane (with 4 μM DdrA protein), except that they have been challenged with a 1000-fold or 2000-fold excess of unlabeled oligo with a 5′ extension, respectively. The unlabeled challenge oligo is the same as that used in reaction set C. (FIG. 7A) Single-strand oligonucleotides (51 nucleotides in length), labelled on the 5′ end. (FIG. 7B) 5′ end-labeled duplex DNA fragments (51 bp). (FIG. 7C) 5′-end-labelled oligonucleotide, with a self-complementary sequence leading to the formation of an 18 bp hairpin and a 15 nucleotide 5′ single strand extension. (FIG. 7D) 3′ end-labelled oligonucleotide, with a self-complementary sequence leading to the formation of an 18 bp hairpin and a 16 nucleotide 3′ single strand extension. The sequences of the single strand extensions in the oligos used in sets C and D are matched, except that an extra adenosine residue has been added to the oligo used in set D during the labelling process.

| Binder | Kd [1] [nM] | binding result [2] |
| --- | --- | --- |
| GGCCTCGCGGTAGCTGAGCTCGGAGCGCACGATTCGCACTGCTGATGTTC (ssDNA) [50 nt ssDNA] | 118 | – |
| AAGCACAATTACCCACGC (ssDNA) [18 nt ssDNA] | 640 | – |
| GCGTGGGTAATTGTGCTTCAATGGACTGAC (ssDNA) [30 nt ssDNA] | 406 | – |
| hairpin with 3' extension (oligo A) (structured_DNA, 3'-terminal ddA added) DNA: TTAACGACCGTCGACCTGCAGGTCGACGGTCGTTAACGTCTCTCAGATTGT | – | binds |
